Source: paper PMC5678105

Legend:
Assay in all cases: EMSA
[1] = test system: TALE_9a_26 (3) (Xanthomonas axonopodis scaffold (designed TALE)); details: 5mC at strand 1 nt 16 (site position 5, T = 0); EMSA: 20 mM Tris pH 8, 50 mM NaCl, 5 mM MgCl2, 5% glycerol; 0.1 pmol TALE + 0.5 pmol duplex in 10 uL; RT 30 min then ice 30 min; gel 0.5x TAE 4 C; GFP readout
[2] = test system: TALE_9a_26 (5*) (Xanthomonas axonopodis scaffold (designed TALE)); details: 5mC at strand 1 nt 16 (site position 5, T = 0); EMSA: 20 mM Tris pH 8, 50 mM NaCl, 5 mM MgCl2, 5% glycerol; 0.1 pmol TALE + 0.5 pmol duplex in 10 uL; RT 30 min then ice 30 min; gel 0.5x TAE 4 C; GFP readout
[3] = test system: TALE_9a_26 R236A (Xanthomonas axonopodis scaffold (designed TALE)); details: 5mC at strand 1 nt 16 (site position 5, T = 0); EMSA: 20 mM Tris pH 8, 50 mM NaCl, 5 mM MgCl2, 5% glycerol; 0.1 pmol TALE + 0.5 pmol duplex in 10 uL; RT 30 min then ice 30 min; gel 0.5x TAE 4 C; GFP readout
[4] = test system: TALE_9a_26 R266A (Xanthomonas axonopodis scaffold (designed TALE)); details: 5mC at strand 1 nt 16 (site position 5, T = 0); EMSA: 20 mM Tris pH 8, 50 mM NaCl, 5 mM MgCl2, 5% glycerol; 0.1 pmol TALE + 0.5 pmol duplex in 10 uL; RT 30 min then ice 30 min; gel 0.5x TAE 4 C; GFP readout
[5] = test system: TALE_9a_26 K262A (Xanthomonas axonopodis scaffold (designed TALE)); details: 5mC at strand 1 nt 16 (site position 5, T = 0); EMSA: 20 mM Tris pH 8, 50 mM NaCl, 5 mM MgCl2, 5% glycerol; 0.1 pmol TALE + 0.5 pmol duplex in 10 uL; RT 30 min then ice 30 min; gel 0.5x TAE 4 C; GFP readout
[6] = test system: TALE_9a_26 K171A/R173A (Xanthomonas axonopodis scaffold (designed TALE)); details: 5mC at strand 1 nt 16 (site position 5, T = 0); EMSA: 20 mM Tris pH 8, 50 mM NaCl, 5 mM MgCl2, 5% glycerol; 0.1 pmol TALE + 0.5 pmol duplex in 10 uL; RT 30 min then ice 30 min; gel 0.5x TAE 4 C; GFP readout
[7] = test system: TALE_2c_26 (23) (Xanthomonas axonopodis scaffold (designed TALE)); details: 5mC at strand 1 nt 24 (site position 13, T = 0); EMSA: 20 mM Tris pH 8, 50 mM NaCl, 5 mM MgCl2, 5% glycerol; 0.1 pmol TALE + 0.5 pmol duplex in 10 uL; RT 30 min then ice 30 min; gel 0.5x TAE 4 C; GFP readout
[8] = test system: TALE_2c_26 (3) (Xanthomonas axonopodis scaffold (designed TALE)); details: 5mC at strand 1 nt 24 (site position 13, T = 0); EMSA: 20 mM Tris pH 8, 50 mM NaCl, 5 mM MgCl2, 5% glycerol; 0.1 pmol TALE + 0.5 pmol duplex in 10 uL; RT 30 min then ice 30 min; gel 0.5x TAE 4 C; GFP readout

**Q.** Which results are given for “GGCCAGCCAGTCAGCCGAAGGCTCCATGCTGCTCCCCGCCGCCGGC (double strand) [9a_26 5mC]”?
**A.** binding signal (fold C/5mC selectivity vs WT TALE) [1]: 5.7; binding signal (fold C/5mC selectivity vs WT TALE) [2]: 7.2; binding signal (fold C/5mC selectivity vs WT TALE) [3]: 1.4; binding signal (fold C/5mC selectivity vs WT TALE) [4]: 3; binding signal (fold C/5mC selectivity vs WT TALE) [5]: 3; binding signal (fold C/5mC selectivity vs WT TALE) [6]: 2.9

**Q.** Which results are given for “CATCCATGAGTGAGAAACCCTGGCGGGGTGTGACATCCTCCCCCGG (double strand) [2c_26 5mC]”?
**A.** binding signal (fold C/5mC selectivity vs WT TALE) [7]: 1.1; binding signal (fold C/5mC selectivity vs WT TALE) [8]: 2.5
